Results taken from patent US20160200781.

Tests used:
[1] = system: ZF11xHunt-Kox-1 (synthetic); experiment: cell_activity
[2] = system: ZF6xHunt-Kox-1 (synthetic); experiment: cell_activity; conditions: htt mRNA repression up to 2.5-fold (60%); protein up to 2-fold; STHdh Q111 cells, 20 days
ZF6xHunt-Kox-1 (synthetic), sequence (chain, as listed by the source): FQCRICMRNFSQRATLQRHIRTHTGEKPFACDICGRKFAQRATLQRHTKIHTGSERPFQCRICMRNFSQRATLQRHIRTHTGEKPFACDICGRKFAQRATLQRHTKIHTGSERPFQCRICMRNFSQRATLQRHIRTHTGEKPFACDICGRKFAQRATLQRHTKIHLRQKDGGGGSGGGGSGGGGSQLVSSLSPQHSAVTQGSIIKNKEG

ZF11xHunt-Kox-1 (synthetic), sequence (chain, as listed by the source): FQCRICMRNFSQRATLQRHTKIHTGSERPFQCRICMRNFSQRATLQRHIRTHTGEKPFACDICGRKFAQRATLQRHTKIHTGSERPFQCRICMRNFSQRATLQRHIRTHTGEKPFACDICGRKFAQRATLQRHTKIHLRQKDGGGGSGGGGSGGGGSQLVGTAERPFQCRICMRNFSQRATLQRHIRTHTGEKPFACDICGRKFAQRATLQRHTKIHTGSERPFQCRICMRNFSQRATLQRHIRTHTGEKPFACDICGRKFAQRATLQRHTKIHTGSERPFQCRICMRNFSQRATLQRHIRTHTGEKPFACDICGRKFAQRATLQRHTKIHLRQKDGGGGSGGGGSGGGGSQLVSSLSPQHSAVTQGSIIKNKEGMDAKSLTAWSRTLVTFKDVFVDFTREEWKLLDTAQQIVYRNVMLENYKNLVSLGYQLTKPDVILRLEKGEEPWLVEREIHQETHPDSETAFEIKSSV

Substance	activity ([1]; mean mutant htt mRNA reduction in R6/2 striatum at 6 weeks, AAV2/1 delivery) [% reduction]	activity [2] [fold]	activity ([1]; almost 80% mRNA reduction and 95% protein reduction, STHdh Q111 cells, 20 days) [% reduction]
R6/2 mutant htt transgene	> 45		
mutant htt Q111 chromosomal locus		< 2.5	80
